Consider four molecules from US20110300138A1 (published 2011).

The target in experiment [1] is human TSHR (thyroid stimulating hormone receptor) expressed in transfected CHO cells (human) (UniProt P16473). Put plainly: cell-based or functional assay.
The target in experiment [2] is TSHR with Asp276 mutated to Ala, expressed in CHO cells (human) (UniProt P16473). Put plainly: cell-based or functional assay.
The target in experiment [3] is TSHR with Gln235 mutated to Ala expressed in CHO cells (human) (UniProt P16473). Put plainly: cell-based or functional assay.
For experiment [4], the target named is wild type TSHR (human TSH receptor) expressed in CHO cells (human) (UniProt P16473). Put plainly: cell-based or functional assay.
Experiment [5] deals with wild type TSHR (human TSH receptor, full length) expressed in CHO cells (human) (UniProt P16473). Put plainly: cell-based or functional assay.
The target in experiment [6] is TSHR with Arg255 mutated to Asp expressed in CHO cells (human) (UniProt P16473). As to the kind of experiment: cell-based or functional assay.
Experiment [7] concerns the target wild type TSHR expressed in CHO cells (human) (UniProt P16473). Put plainly: cell-based or functional assay.
Experiment [8] has as its target full length human TSHR with mutation Arg255 Asp (human) (UniProt P16473). Put plainly: TSHR260-AP bridge ELISA, Arg255 Asp TSHR on wells; IgG at 1 µg/mL in HBD. (In general: In an ELISA, binding on a coated surface is turned into a signal by an enzyme label.)
In experiment [9] the target is thyroid stimulating hormone receptor (TSHR), full length, coated on tubes (human) (UniProt P16473). Put plainly: inhibition of 125I-TSH binding, TSHR coated tubes; antibody 10 µg/mL in HBD serum pool.
Experiment [10] has the same target. Put plainly: inhibition of 125I-TSH binding, TSHR coated tubes; antibody 100 µg/mL in HBD serum pool.
Experiment [11] has as its target human thyroid stimulating hormone receptor (TSHR), full length (human) (UniProt P16473). Put plainly: 125I-K1-70 Fab (competitor) binding to TSHR coated tubes; test sample 0.1 µg/mL in HBD serum.
For experiment [12] the target is unchanged. As to the kind of experiment: 125I-K1-70 Fab (competitor) binding to TSHR coated tubes; test sample 0.01 µg/mL in HBD serum.
Experiment [13] shares this target. As to the kind of experiment: 125I-K1-70 Fab (competitor) binding to TSHR coated tubes; test sample 0.1 µg/mL in assay buffer.
The target is the same in experiment [14]. Put plainly: 125I-K1-70 Fab (competitor) binding to TSHR coated tubes; test sample 0.01 µg/mL in assay buffer.
In experiment [15] the target is TSHR260-alkaline phosphatase (TSHR260-AP) (human) (UniProt P05187). Put plainly: TSHR260-AP bridge ELISA, full length TSHR on wells; 0.005 µg/mL, diluted in HBD.
In experiment [16] the target is human TSH receptor (full length) coated on ELISA plate wells (human) (UniProt P16473). Put plainly: TSH-biotin binding inhibition ELISA, TSHR coated wells; 0.01 µg/mL in assay buffer + 100 µg/mL 5B3 IgG.

As for 5B3 IgG (antibody), in [1], the % Inhibition; 10 ng/mL K1-18 IgG + 10 µg/mL 5B3 IgG worked out at 4%, the % Inhibition; 10 ng/mL K1-18 IgG + 100 µg/mL 5B3 IgG is -13%, the Cyclic AMP concentration; 10 ng/mL K1-18 IgG + 10 µg/mL 5B3 IgG came to 35.4 pmol/mL and the Cyclic AMP concentration; 10 ng/mL K1-18 IgG + 100 µg/mL 5B3 IgG came out at 41.9 pmol/mL. Also, in [1], the Cyclic AMP concentration; 100 µg/mL 5B3 IgG came to 1.3 pmol/mL. Also, in experiment [2], the Experiment 1; % inhibition of TSH stimulation; 5B3 10 µg/mL was found to be 6%, the Experiment 1; % inhibition of TSH stimulation; 5B3 100 µg/mL amounted to 4%, the Experiment 1; Mutated/wild type (%) of cyclic AMP produced; 5B3 10 µg/mL + TSH 3 ng/mL turned out to be 84% and the Experiment 1; Mutated/wild type (%) of cyclic AMP produced; 5B3 100 µg/mL + TSH 3 ng/mL turned out to be 94%. In addition, in [2], the Experiment 1; cyclic AMP produced; 5B3 10 µg/mL + TSH 3 ng/mL stood at 66.8 pmol/mL, the Experiment 1; cyclic AMP produced; 5B3 100 µg/mL + TSH 3 ng/mL worked out at 68.5 pmol/mL, the Experiment 2; % inhibition of TSH stimulation; 5B3 10 µg/mL amounted to 4% and the Experiment 2; % inhibition of TSH stimulation; 5B3 100 µg/mL turned out to be 0%. In [2], the Experiment 2; Mutated/wild type (%) of cyclic AMP produced; 5B3 10 µg/mL + TSH 3 ng/mL came to 67%, the Experiment 2; Mutated/wild type (%) of cyclic AMP produced; 5B3 100 µg/mL + TSH 3 ng/mL is 75%, the Experiment 2; cyclic AMP produced; 5B3 10 µg/mL + TSH 3 ng/mL stood at 71.6 pmol/mL and the Experiment 2; cyclic AMP produced; 5B3 100 µg/mL + TSH 3 ng/mL turned out to be 75.9 pmol/mL. In addition, in [3], the Experiment 1: % inhibition of TSH stimulation; 5B3 10 µg/mL is 0%, the Experiment 1: % inhibition of TSH stimulation; 5B3 100 µg/mL was determined as 0%, the Experiment 1: Mutated/wild type (%) of cyclic AMP produced; 5B3 10 µg/mL + TSH 3 ng/mL amounted to 80% and the Experiment 1: Mutated/wild type (%) of cyclic AMP produced; 5B3 100 µg/mL + TSH 3 ng/mL worked out at 63%. For the same molecule, in experiment [3], the Experiment 2: % inhibition of TSH stimulation; 5B3 10 µg/mL amounted to 14%, the Experiment 2: % inhibition of TSH stimulation; 5B3 100 µg/mL came out at 0%, the Experiment 2: Mutated/wild type (%) of cyclic AMP produced; 5B3 10 µg/mL + TSH 3 ng/mL is 77% and the Experiment 2: Mutated/wild type (%) of cyclic AMP produced; 5B3 100 µg/mL + TSH 3 ng/mL is 95%. In [4], this molecule came in with a % inhibition of TSH stimulation, Exp 1: 5B3 10 µg/mL of 0%; a % inhibition of TSH stimulation, Exp 1: 5B3 100 µg/mL of 0%; a % inhibition of TSH stimulation, Exp 2: 5B3 10 µg/mL of 0%; a % inhibition of TSH stimulation, Exp 2: 5B3 100 µg/mL of 0%. For the same molecule, in experiment [4], the % inhibition of TSH stimulation: 5B3 10 µg/mL is 0%, the % inhibition of TSH stimulation: 5B3 100 µg/mL is 0%, the % inhibition of TSH stimulation; 5B3 10 µg/mL came out at 0% and the % inhibition of TSH stimulation; 5B3 100 µg/mL stood at 0%. Further, in experiment [4], the Cyclic AMP produced; 5B3 10 µg/mL + TSH 3 ng/mL was 75.6 pmol/mL and the Cyclic AMP produced; 5B3 100 µg/mL + TSH 3 ng/mL is 68.3 pmol/mL. In [5], this molecule gave a % inhibition of TSH stimulation; 5B3 10 µg/mL of 0%, a % inhibition of TSH stimulation; 5B3 10 µg/mL; Experiment 1 of 3%, a % inhibition of TSH stimulation; 5B3 10 µg/mL; Experiment 2 of 0% and a % inhibition of TSH stimulation; 5B3 100 µg/mL of 0%. In experiment [5], the % inhibition of TSH stimulation; 5B3 100 µg/mL; Experiment 1 came to 0%, the % inhibition of TSH stimulation; 5B3 100 µg/mL; Experiment 2 was found to be 0%, the Cyclic AMP produced; 5B3 10 µg/mL + TSH 3 ng/mL came out at 53.9 pmol/mL and the Cyclic AMP produced; 5B3 10 µg/mL + TSH 3 ng/mL; Experiment 1 is 65.8 pmol/mL. In experiment [5], the Cyclic AMP produced; 5B3 10 µg/mL + TSH 3 ng/mL; Experiment 2 is 68.6 pmol/mL, the Cyclic AMP produced; 5B3 100 µg/mL + TSH 3 ng/mL was found to be 52.6 pmol/mL, the Cyclic AMP produced; 5B3 100 µg/mL + TSH 3 ng/mL; Experiment 1 amounted to 68.5 pmol/mL and the Cyclic AMP produced; 5B3 100 µg/mL + TSH 3 ng/mL; Experiment 2 came to 66.5 pmol/mL. In experiment [6], the % inhibition of TSH stimulation; 5B3 10 µg/mL stood at 0%, the % inhibition of TSH stimulation; 5B3 100 µg/mL is 0%, the Cyclic AMP produced; 5B3 10 µg/mL + TSH 3 ng/mL came to 59.4 pmol/mL and the Cyclic AMP produced; 5B3 100 µg/mL + TSH 3 ng/mL was 62.2 pmol/mL. In experiment [6], the Mutated/wild type (%) of cyclic AMP produced; 5B3 10 µg/mL + TSH 3 ng/mL was found to be 86% and the Mutated/wild type (%) of cyclic AMP produced; 5B3 100 µg/mL + TSH 3 ng/mL was 75%. Besides, in experiment [7], the % inhibition of TSH stimulation; 5B3 10 µg/mL turned out to be 0%, the % inhibition of TSH stimulation; 5B3 100 µg/mL was determined as 0%, the Cyclic AMP produced; 5B3 10 µg/mL + TSH 3 ng/mL came out at 69.2 pmol/mL and the Cyclic AMP produced; 5B3 100 µg/mL + TSH 3 ng/mL came out at 83.4 pmol/mL.
Turning to 9D33 IgG (antibody), in experiment [1], the % Inhibition; 10 ng/mL K1-18 IgG + 0.001 µg/mL 9D33 IgG turned out to be 3%, the % Inhibition; 10 ng/mL K1-18 IgG + 0.01 µg/mL 9D33 IgG was determined as 15%, the % Inhibition; 10 ng/mL K1-18 IgG + 0.1 µg/mL 9D33 IgG came to 86% and the % Inhibition; 10 ng/mL K1-18 IgG + 1 µg/mL 9D33 IgG amounted to 95%. Further, in experiment [1], the % Inhibition; 10 ng/mL K1-18 IgG + 10 µg/mL 9D33 IgG was 95%, the % Inhibition; 10 ng/mL K1-18 IgG + 100 µg/mL 9D33 IgG amounted to 94%, the Cyclic AMP concentration; 10 ng/mL K1-18 IgG + 0.001 µg/mL 9D33 IgG stood at 35.8 pmol/mL and the Cyclic AMP concentration; 10 ng/mL K1-18 IgG + 0.01 µg/mL 9D33 IgG stood at 31.3 pmol/mL. For the same molecule, in experiment [1], the Cyclic AMP concentration; 10 ng/mL K1-18 IgG + 0.1 µg/mL 9D33 IgG came out at 5.3 pmol/mL, the Cyclic AMP concentration; 10 ng/mL K1-18 IgG + 1 µg/mL 9D33 IgG is 1.9 pmol/mL, the Cyclic AMP concentration; 10 ng/mL K1-18 IgG + 10 µg/mL 9D33 IgG amounted to 1.9 pmol/mL and the Cyclic AMP concentration; 10 ng/mL K1-18 IgG + 100 µg/mL 9D33 IgG came to 2.2 pmol/mL. Moreover, in experiment [1], the Cyclic AMP concentration; 100 µg/mL 9D33 IgG was found to be 2 pmol/mL. The molecule further had a Mean absorbance at 405 nm (absorbance at 405 nm) in experiment [8] of 0.322. In experiment [9], the Inhibition of binding (%) stood at 60.5%. Moreover, the Inhibition of binding (%) in [10] came out at 67.4%. Also, the Inhibition of binding (%) in experiment [11] came out at 12.7%. For the same molecule, the Inhibition of binding (%) in experiment [12] is -1.2%. For the same molecule, the Inhibition of binding (%) in experiment [13] came to 29.7%. Moreover, the Inhibition of binding (%) in [14] is 5%.
For the molecule M22 IgG (antibody), the Mean absorbance at 405 nm (absorbance at 405 nm) in [8] is 0.34; in experiment [15], 0.045. In addition, the % inhibition of TSH-biotin binding in [16] was 12.9%.

B1: 5C9 IgG (antibody, from another filing, V domains shown)
VH: EVQLVESGGGLIQPGGSLRLSCAASGFTVSSNYMSWVRQAPGKGLEWVSVTYSGGSTSYADSVKGRFTISRDNSKNTLYLQMNSLRAEDTAVYYCARGGRYCSSISCYARSGCDYWGQGTLVTVSS
VL: AIQMTQSPSSLSASVGDRVTITCRASQSISNYLNWYQQKPGKAPKLLIYAASSLQSGVPSRFSGSGSGTDFTLTISSLQPEDFATYYCQQSYSSPSTTFGQGTKLEIK
Molecule B1 gave a Mean absorbance at 405 nm (absorbance at 405 nm) in experiment [15] of 0.02. Moreover, the Inhibition of binding (%) in [9] is 40.9%; in [10], 35.3%; in experiment [11], 6%; in experiment [12] it was -4.4%; in experiment [13] it was 21.9%; in experiment [14] it was 10.9%. Moreover, the % inhibition of TSH-biotin binding in experiment [16] is 20.7%.
